Measurements as given in US20260274985A1 (MYTHIC THERAPEUTICS, published 2026).

Tests used:
[1] = biological target: T1, Human TROP2 Protein, His Tag (Acro Biosystems) (human, UniProt P09758 27-274); assay: BLI (Octet) [1/2]
T1 construct: also called TACSTD2; not shown: His tag
T1 sequence (looked up): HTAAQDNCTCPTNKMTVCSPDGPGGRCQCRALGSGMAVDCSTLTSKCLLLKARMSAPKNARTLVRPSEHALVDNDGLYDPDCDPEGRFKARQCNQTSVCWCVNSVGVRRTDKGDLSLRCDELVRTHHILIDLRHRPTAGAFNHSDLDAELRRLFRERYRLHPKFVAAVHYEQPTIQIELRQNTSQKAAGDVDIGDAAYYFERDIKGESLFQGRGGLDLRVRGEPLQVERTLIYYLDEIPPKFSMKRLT

[2] = biological target: T2, Human TROP2 Protein, His Tag (Acro Biosystems) (human, UniProt P09758 27-274); assay: BLI (Octet)
T2 construct: not shown: His tag
T2 sequence (looked up): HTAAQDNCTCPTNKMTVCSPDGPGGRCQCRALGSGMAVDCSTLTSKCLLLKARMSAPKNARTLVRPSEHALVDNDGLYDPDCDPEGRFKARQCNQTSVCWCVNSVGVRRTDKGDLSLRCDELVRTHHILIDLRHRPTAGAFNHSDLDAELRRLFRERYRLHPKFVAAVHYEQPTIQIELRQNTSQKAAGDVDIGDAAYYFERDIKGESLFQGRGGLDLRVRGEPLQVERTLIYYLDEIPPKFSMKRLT

[3] = biological target: T3, TROP2 on TROP2-positive NCI-H1975 cells (human, UniProt P09758 27-323); assay: binding to TROP2-positive NCI-H1975 cells at pH 6.7
T3 construct: whole, on cells
T3 sequence (looked up): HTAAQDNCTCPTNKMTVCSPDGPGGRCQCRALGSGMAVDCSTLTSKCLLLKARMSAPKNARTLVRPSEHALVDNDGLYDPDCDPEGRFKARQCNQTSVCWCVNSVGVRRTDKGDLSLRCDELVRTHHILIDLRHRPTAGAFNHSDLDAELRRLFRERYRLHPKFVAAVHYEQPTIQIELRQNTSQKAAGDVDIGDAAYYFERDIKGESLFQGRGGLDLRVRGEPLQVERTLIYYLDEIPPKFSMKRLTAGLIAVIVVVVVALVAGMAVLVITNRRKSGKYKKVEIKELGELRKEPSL

[4] = biological target: T3, TROP2 on TROP2-positive NCI-H1975 cells; assay: binding to TROP2-positive NCI-H1975 cells at pH 7.4
[5] = biological target: T2, Human TROP2 Protein, His Tag (Acro …); assay: Octet (BLI); antigen and pH not given

B1: MYT13396 (antibody, V domains shown)
VH: QVQLQQSGSELKKPGASVKVSCKASGYTFTNYGMNWVKQAPGQGLKWMGWINTYTGEPTYTDDFHGRFAFSLDTSVSTAYLQISSLKADDTAVYFCARGGFGSSYWYFDVWGQGSLVTVSS
VL: DIQLTQSPSSLSASVGDRVSITCKASQDVSIAHAWYQQKPGKAPKLLIYSASHRYTGVPDRFSGSGSGTDFTLTISSLQPEDFAVYYCQQHYITPLTFGAGTKVEIK
notes: Sacituzumab HC-LC pairing variant
[1]
  binding result: binds

B2: MYT13397 (antibody, V domains shown)
VH: QVQLQQSGSELKKPGASVKVSCKASGYTFTNYGMNWVKQAPGQGLKWMGWINTYTGEPTYTDDFKHRFAFSLDTSVSTAYLQISSLKADDTAVYFCARGGFGSSYWYFDVWGQGSLVTVSS
VL: DIQLTQSPSSLSASVGDRVSITCKASQDVSIAHAWYQQKPGKAPKLLIYSASHRYTGVPDRFSGSGSGTDFTLTISSLQPEDFAVYYCQQHYITPLTFGAGTKVEIK
notes: as for B1
[1]
  binding result: binds

B3: MYT13258 (antibody, V domains shown)
VH: QVQLVQSGAEVKKPGASVKVSCKASGYTFTTAGMQWVRQAPGQGLEWMGWINTHSGVPKYAEDFKGRVTISADTSTSTAYLQLSSLKSEDTAVYYCARSGHGSSYWYFDVWGQGTLVTVSS
VL: DIQMTQSPSSLSASVGDRVTITCKASQDHSTAVAWYQQKPGKAPKLLIYSASYRYTGVPSRFSGSGSGTDFTLTISSLQPEDFAVYYCQQHYITPLTFGQGTKLEIK
notes: Full-length IgG from Expi293 supernatant; also called datopotamab heavy chain and light chain pairing variant
[2]
  binding result: binds

B4: MYT13259 (antibody, V domains shown)
VH: QVQLVQSGAEVKKPGASVKVSCKASGYTFTTAGMQWVRQAPGQGLEWMGWINTHSGVPKYAEDFKGRVTISADTSTSTAYLQLSSLKSEDTAVYYCARSGFGSHYWYFDVWGQGTLVTVSS
VL: DIQMTQSPSSLSASVGDRVTITCKASQDHSTAVAWYQQKPGKAPKLLIYSASYRYTGVPSRFSGSGSGTDFTLTISSLQPEDFAVYYCQQHYITPLTFGQGTKLEIK
notes: as for B3
[2]
  binding result: binds

B5: MYT13261 (antibody, V domains shown)
VH: QVQLVQSGAEVKKPGASVKVSCKASGYTFTTAGMQWVRQAPGQGLEWMGWINTHSGVPKYAEDFKGRVTISADTSTSTAYLQLSSLKSEDTAVYYCAHSGFGSSYWYFDVWGQGTLVTVSS
VL: DIQMTQSPSSLSASVGDRVTITCKASQDVSTAVAWYQQKPGKAPKLLIYSAHYRYTGVPSRFSGSGSGTDFTLTISSLQPEDFAVYYCQQHYITPLTFGQGTKLEIK
notes: as for B3
[2]
  binding result: binds

B6: MYT13425 (antibody, human IgG1, V domains shown)
VH: QVQLQQSGSELKKPGASVKVSCKASGYTFTNYGMNWVKQAPGQGLKWMGWINTYTGEPTYTHDFKGRFAFSLDTSVSTAYLQISSLKADDTAVYFCARGGFGSSYWYFDVWGQGSLVTVSS
VL: DIQLTQSPSSLSASVGDRVSITCKASQDVHIAVAWYQQKPGKAPKLLIYSHSYRYTGVPDRFSGSGSGTDFTLTISSLQPEDFAVYYCQQHYHTPLTFGAGTKVEIK
notes: IgG; also called Sacituzumab HC-LC pairing variant
[3]
  IC50: 2.66 nM
[4]
  IC50: 0.81 nM
[5]
  Kd: 3.9 nM
  Octet response at 33.33 nM (Y-Axis) nm: 0.135 nm

B7: MYT13427 (antibody, human IgG1, V domains shown)
VH: QVQLQQSGSELKKPGASVKVSCKASGYTFTNYGMNWVKQAPGQGLKWMGWINTYTGEPTYTDDHKGRFAFSLDTSVSTAYLQISSLKADDTAVYFCARGGFGSSYWYFDVWGQGSLVTVSS
VL: DIQLTQSPSSLSASVGDRVSITCKASQDVHIAVAWYQQKPGKAPKLLIYSHSYRYTGVPDRFSGSGSGTDFTLTISSLQPEDFAVYYCQQHYHTPLTFGAGTKVEIK
notes: as for B6
[3]
  IC50: 4.39 nM
[4]
  IC50: 1 nM
[5]
  Kd: 2.12 nM
  Octet response at 33.33 nM (Y-Axis) nm: 0.134 nm

B8: MYT13428 (antibody, human IgG1, V domains shown)
VH: QVQLQQSGSELKKPGASVKVSCKASGYTFTNYGMNWVKQAPGQGLKWMGWINTYTGEPTYTDDFHGRFAFSLDTSVSTAYLQISSLKADDTAVYFCARGGFGSSYWYFDVWGQGSLVTVSS
VL: DIQLTQSPSSLSASVGDRVSITCKASQDVHIAVAWYQQKPGKAPKLLIYSHSYRYTGVPDRFSGSGSGTDFTLTISSLQPEDFAVYYCQQHYHTPLTFGAGTKVEIK
notes: as for B6
[3]
  IC50: 8.29 nM
[4]
  IC50: 1.56 nM
[5]
  Kd: 2.08 nM
  Octet response at 33.33 nM (Y-Axis) nm: 0.141 nm
